Assay results: the supplement of paper PMC12042874
± gives the uncertainty stated by the source.

assay: amyloid nucleation score (Sup35N fusion, yeast selection) (log enrichment); library NNK3; higher = more nucleation; inactive = no reads after selection
Outline: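 Three technical output replicates were used for random libraries. Psi-negative yeast expressing peptides of 20 random codons fused to Sup35N were induced with 100 μM copper sulfate for 24 hours and grown 7 days at 30°C on medium lacking adenine and uracil, and input and output plasmid inserts were Illumina-sequenced, excluding sequences with under 100 input reads. The nucleation score is the DiMSum log enrichment of output over input reads, centred on the mode score of non-aggregating sequences.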

| Substance | amyloid nucleation score |
| --- | --- |
| VYSTVF | inactive |
| VYTTS | inactive |
| VYVFAQ | inactive |
| VYVHLRNLQSL | inactive |
| VYYFRQLFPICIDNQARTWC | inactive |
| VYYSWVICSMERTKSWSMSS | -0.227 ± 0.75 |
| WAIGQLYFMRILV | inactive |
| WASDNVEGDWWYWW | 0.017 ± 0.57 |
| WAVYVGVL | inactive |
| WCCFSWKVLRHGLTSACGC | 1.31 ± 0.11 |
| WCCGY | 0.774 ± 0.27 |
| WCGVFWLVVMAY | inactive |
| WCKVRYSTNMVTSTSATLVA | inactive |
| WCPTGEYRKCYNMSFARW | inactive |
| WDGYCSRQDRLRFAYRLGVG | inactive |
| WDKSLSVRTQVCHNRDS | inactive |
| WDMWPGI | inactive |
| WECRDETSCARVVFTGLFR | inactive |
| WEPYTCIYC | inactive |
| WFAGGHGKESIINWHYCQYM | inactive |
| WFCVLMDSAWDCRVIGGGGR | 1.1 ± 0.13 |
| WFFMTCNGCFDHGGVKCLRS | inactive |
| WFMREAWIWSAPFWPWIRNT | inactive |

| Substance | amyloid nucleation score |
| --- | --- |
| WFMVIAVCMSAFESKLARFH | inactive |
| WFSNVGVVEVASSRCREWGI | inactive |
| WFTQERHSVPLLIWMGLRRQ | 2.03 ± 0.075 |
| WFWRVNIMKTIGLSHSRHEG | inactive |
| WGDDGNTFYE | inactive |
| WGESNVSTIV | inactive |
| WGFLQLHEPS | inactive |
| WGFRWNKCLNLAQPWLMALS | inactive |
| WGFVIIYELKNLMCVMRPPS | inactive |
| WGGVGKKMKRQRTAGTSRSG | inactive |
| WGICFVITYNIKIKYDHLMS | 1.18 ± 0.081 |
| WGITA | inactive |
| WGSGY | inactive |
| WGVGTPVRLWFIEANPVGHV | inactive |
| WIDFLSRLTIRGSDMYHQEY | 0.37 ± 0.29 |
| WIERAAAALVLDLLCSKRRA | inactive |
| WIGSRGHQCPYRSSVTMMGT | inactive |
| WIKGVRIRPL | inactive |
| WIMWTLAIKIIMCW | inactive |
| WIRVDRCGCARVPLGDHVKK | inactive |
| WISEDTRLLHWLLQCVWIRI | -0.531 ± 1.4 |
| WIVLQTSNSRLMQWGAP | 0.618 ± 0.27 |
| WIWVVVHFYDLECQLDS | inactive |

| Substance | amyloid nucleation score |
| --- | --- |
| WIYYNAVFHACCVYELSNNA | 2.85 ± 0.067 |
| WKRNFIW | inactive |
| WKYRSKRWMMLSASVRLYSS | inactive |
| WLFLVN | inactive |
| WLGKYVLVSEYIV | inactive |
| WLGWPD | inactive |
| WLLLLSK | inactive |
| WLLPQKGLMG | inactive |
| WLTYYIDFRVILSFQSVRDY | inactive |
| WLWKVSFK | 1.41 ± 0.093 |
| WLYARISADHDCLLKPELRM | inactive |
| WMVVTMPSLKCGSYASVHGA | inactive |
| WNDRKSYLYSAIAMKARSVY | inactive |
| WNFWNNFKSLEWEVLARYFF | inactive |
| WNPYAIARKAIVRGSVKWGV | inactive |
| WNRAVCIMSNIWIMDLPVLK | inactive |
| WPFMNYVNENCSWYSS | 1.09 ± 0.14 |
| WPIIGTLNRTSGSDR | inactive |
| WPVNCMKGSSCNRELFNH | inactive |
| WQLRQGDLGSHVRRFLQLYR | inactive |
| WQNEMYGRCVLCKLRYNEPD | inactive |
